Data published in patent publication US20160257763A1 (Zymeworks, published 2016).

Columns and labels:
[1] = molecular target: T1, Recombinant human EGFR-ED (human, UniProt P00533 25-645); assay: SPR, v1323 captured by anti-human IgG, EGFR-ED injected, 1:1 Langmuir fit
T1 construct: extracellular domain; also called extracellular domain (ED) of EGFR
Experimental: (§1) The ability of v1323 comprising an EGFR binding domain to bind to the extracellular domain (ED) of EGFR was tested by Surface Plasmon Resonance (SPR) using a ProteOn XPR36 system from BIO-RAD.
(§2) Approximately 3000 RU of anti-human IgG 25 ug/ml was immobilized on a GLC chip using standard amine coupling. Exemplary SDACs were captured on the anti-human IgG immobilized chip to capture level of approximately 700 RU. Recombinant human EGFR-ED was diluted in running buffer and injected at a flow rate of 50 μl/min for 2 minutes, followed by dissociation for another 4 minutes. Sensograms were fit globally to a 1:1 Langmuir binding model. All experiments were conducted at room temperature.

[2] = molecular target: T1, Recombinant human EGFR-ED; assay: SPR (ProteOn XPR36); v1323 captured on immobilized anti-human IgG, recombinant human EGFR-ED injected as analyte; global 1:1 Langmuir fit
Experimental: as §1, §2

- Kd [1]: 3 to 4.5 nM
- Kd [2]: 4.05 nM
- koff [2]: 0.004 s⁻¹
- kon [2]: 989000 M⁻¹ s⁻¹
B1: v1323, monovalent anti-EGFR antibody (EG2) (Fc fusion)
VHH: QVKLEESGGGLVQAGDSLRVSCAASGRDFSDYVMGWFRQAPGKEREFVAAISRNGLTTRYADSVKGRFTISRDNDKNMVYLQMNSLKPEDTAVYYCAVNSAGTYVSPRSREYDYWGQGTQVTVSS
notes: EU numbering; no light chain, no CH1; also called exemplary heteromultimer; not shown: hinge/linker between the VhH and the Fc (not described), and with it the heterodimer Fc carrier, left out of the chains
